Test results as given in patent US20190119406.

Target: T1, Mutant OB chain (short chain, hinge-CH2-CH3 with T394D, P395D, P396D) [IgG part: P01857]
T1 chain: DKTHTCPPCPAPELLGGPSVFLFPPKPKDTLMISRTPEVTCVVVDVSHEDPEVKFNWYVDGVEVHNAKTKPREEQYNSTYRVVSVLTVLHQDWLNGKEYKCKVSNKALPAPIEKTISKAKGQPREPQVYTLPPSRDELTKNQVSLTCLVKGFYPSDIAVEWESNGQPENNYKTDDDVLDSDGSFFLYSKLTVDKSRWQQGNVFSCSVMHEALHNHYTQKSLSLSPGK
Assay: co-transfection of OA and OB in HEK293, protein A bead pull-down, SDS-PAGE (FIGS. 3, 4 and 6)

B1: Mutant OA chain (long chain, CH1-hinge-CH2-CH3 with P395K, P396K, V397K) (protein)
chain: ASTKGPSVFPLAPSSKSTSGGTAALGCLVKDYFPEPVTVSWNSGALTSGVHTFPAVLQSSGLYSLSSVVTVPSSSLGTQTYICNVNHKPSNTKVDKKVEPKSCDKTHTCPPCPAPELLGGPSVFLFPPKPKDTLMISRTPEVTCVVVDVSHEDPEVKFNWYVDGVEVHNAKTKPREEQYNSTYRVVSVLTVLHQDWLNGKEYKCKVSNKALPAPIEKTISKAKGQPREPQVYTLPPSRDELTKNQVSLTCLVKGFYPSDIAVEWESNGQPENNYKTTKKKLDSDGSFFLYSKLTVDKSRWQQGNVFSCSVMHEALHNHYTQKSLSLSPGK
yield of heterodimer: high yield of heterodimer (above 95%)
